Results taken from patent publication US7084111 (UNIVERSITY OF FLORIDA RESEARCH FOUNDATION, dated 2006).
Bridges are numbered along the chain shown (N, C = ends). Where no end group is shown, it is not given here. [ ]: non-standard residue; d: D form. Nle = CCCC[C@H](N)C(=O)O; Dap = NC[C@H](N)C(=O)O

Columns and labels:
Test in all cases: cell-based or functional assay
[1] = target: mouse melanocortin-4 receptor (mouse, UniProt P56450 1-332)
[2] = target: mouse melanocortin-5 receptor (mouse, UniProt P41149 1-325)
mouse melanocortin-5 receptor, sequence (P41149 whole entry): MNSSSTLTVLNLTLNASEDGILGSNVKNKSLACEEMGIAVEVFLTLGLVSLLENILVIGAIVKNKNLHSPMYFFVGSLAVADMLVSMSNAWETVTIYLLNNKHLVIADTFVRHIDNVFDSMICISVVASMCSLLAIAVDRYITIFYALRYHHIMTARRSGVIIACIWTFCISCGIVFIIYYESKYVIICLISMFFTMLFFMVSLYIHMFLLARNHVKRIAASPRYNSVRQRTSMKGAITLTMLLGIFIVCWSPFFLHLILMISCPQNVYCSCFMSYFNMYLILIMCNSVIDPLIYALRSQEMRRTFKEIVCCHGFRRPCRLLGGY

[3] = target: mouse melanocortin-1 receptor (mouse, UniProt Q01727 1-315)
mouse melanocortin-1 receptor, sequence (Q01727 whole entry): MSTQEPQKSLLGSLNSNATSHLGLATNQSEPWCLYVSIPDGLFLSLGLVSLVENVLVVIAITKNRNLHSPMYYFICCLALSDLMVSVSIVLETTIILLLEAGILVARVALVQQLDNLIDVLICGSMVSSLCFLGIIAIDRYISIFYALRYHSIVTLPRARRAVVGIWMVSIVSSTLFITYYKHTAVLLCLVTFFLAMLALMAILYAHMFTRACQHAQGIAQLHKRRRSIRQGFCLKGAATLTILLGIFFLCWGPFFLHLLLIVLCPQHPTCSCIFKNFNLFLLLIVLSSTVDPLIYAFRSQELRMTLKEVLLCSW

[4] = target: mouse melanocortin-3 receptor (mouse, UniProt P33033 1-323)
mouse melanocortin-3 receptor, sequence (P33033 whole entry): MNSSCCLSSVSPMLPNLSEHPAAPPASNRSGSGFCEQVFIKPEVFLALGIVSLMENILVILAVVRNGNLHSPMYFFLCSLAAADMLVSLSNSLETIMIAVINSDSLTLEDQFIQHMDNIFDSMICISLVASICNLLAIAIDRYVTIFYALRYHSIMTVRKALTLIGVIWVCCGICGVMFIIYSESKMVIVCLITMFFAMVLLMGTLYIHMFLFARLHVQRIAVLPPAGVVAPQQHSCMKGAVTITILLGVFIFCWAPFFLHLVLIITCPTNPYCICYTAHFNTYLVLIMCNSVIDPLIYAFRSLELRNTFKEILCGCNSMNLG

mouse melanocortin-4 receptor, sequence (P56450 whole entry): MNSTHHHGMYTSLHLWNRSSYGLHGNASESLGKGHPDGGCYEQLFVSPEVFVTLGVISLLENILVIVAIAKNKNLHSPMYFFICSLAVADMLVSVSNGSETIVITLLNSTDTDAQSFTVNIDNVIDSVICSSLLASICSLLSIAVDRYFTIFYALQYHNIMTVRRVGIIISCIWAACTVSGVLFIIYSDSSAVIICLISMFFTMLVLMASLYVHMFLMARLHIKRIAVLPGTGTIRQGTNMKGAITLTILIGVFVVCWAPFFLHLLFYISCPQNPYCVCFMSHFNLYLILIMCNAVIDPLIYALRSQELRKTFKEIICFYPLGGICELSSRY

**Q.** Which “EC50 (agonist)” value [1] does the source give for YDFRWNAF[Dap]Y-NH2 (lactam 2-9) [SEQ ID NO:6 (Tyr-c[Asp-Phe-Arg-Trp-Asn-Ala-Phe-Dpr]-Tyr)] here?
**A.** 13400 nM

**Q.** And the “EC50 (agonist)” value [2]?
**A.** 3900 nM

**Q.** And the “EC50 (agonist)” value [3]?
**A.** 19700 nM

**Q.** With YDRFFNAF[Dap]Y-NH2 (lactam 2-9) [SEQ ID NO:3 (Tyr-c[Asp-Arg-Phe-Phe-Asn-Ala-Phe-Dpr]-Tyr)] as the binder, how does the “pA2 (antagonist)” value [1] read?
**A.** 5.9

**Q.** And the “EC50 (agonist)” value [2]?
**A.** > 100000 nM

**Q.** And the “pA2 (antagonist)” value [4]?
**A.** 5.7

B1: SEQ ID NO:31 (Tyr-c[Asp-His-Pro-Arg-Trp-Asn-Ala-Phe-Dpr]-Tyr) (peptide)
peptide: YDHPRWNAF[Dap]Y-NH2
modifications: lactam 2-10; N-terminus assumed
SMILES: C[C@@H]1NC(=O)[C@H](CC(N)=O)NC(=O)[C@H](Cc2c[nH]c3ccccc23)NC(=O)[C@H](CCCNC(=N)N)NC(=O)[C@@H]2CCCN2C(=O)[C@H](Cc2c[nH]cn2)NC(=O)[C@@H](NC(=O)[C@@H](N)Cc2ccc(O)cc2)CC(=O)NC[C@@H](C(=O)N[C@@H](Cc2ccc(O)cc2)C(N)=O)NC(=O)[C@H](Cc2ccccc2)NC1=O
**Q.** How did the “EC50 (agonist)” value [1] turn out when B1 was run?
**A.** 16700 nM

**Q.** And the “EC50 (agonist)” value [2]?
**A.** 7900 nM

**Q.** And the “EC50 (agonist)” value [3]?
**A.** 10300 nM

**Q.** What about the “EC50 (agonist)” value [4] of the same binder?
**A.** 13200 nM

B2: SEQ ID NO:23 (Ac-Nle-c[Asp-His-Arg-Phe-DPhe-Lys]) (peptide)
peptide: Ac-[Nle]DHRF[dF]K-NH2
modifications: lactam 2-7
SMILES: CCCC[C@H](NC(C)=O)C(=O)N[C@H]1CC(=O)NCCCC[C@@H](C(N)=O)NC(=O)[C@@H](Cc2ccccc2)NC(=O)[C@H](Cc2ccccc2)NC(=O)[C@H](CCCNC(=N)N)NC(=O)[C@H](Cc2c[nH]cn2)NC1=O
**Q.** What does the source list for B2?
**A.** EC50 (agonist) [1]: > 100000 nM; EC50 (agonist) [3]: 2630 nM

B3: SEQ ID NO:42 (Tyr-c[Asp-His-DPhe-Arg-Tic-Asn-Ala-Phe-Dpr]-Tyr) (peptide)
peptide: YDHXRXNAFXY
modifications: Asp-Dpr side chain lactam bridge; Dpr; DPhe; Tic; C-terminal amide (amide resin)
**Q.** How did the “EC50 (agonist)” value [1] turn out when B3 was run?
**A.** 260 nM

**Q.** What about the “EC50 (agonist)” value [2] of the same binder?
**A.** 42.7 nM

**Q.** And the “EC50 (agonist)” value [3]?
**A.** 21.6 nM

**Q.** And the “EC50 (agonist)” value [4]?
**A.** 3400 nM

**Q.** What does the source list for YDHXAWNAFXY (Asp-Dpr side chain lactam bridge; Dpr; DPhe; C-terminal amide (amide resin)) [SEQ ID NO:26 (Tyr-c[Asp-His-DPhe-Ala-Trp-Asn-Ala-Phe-Dpr]-Tyr)]?
**A.** EC50 (agonist) [1]: 32.5 nM; EC50 (agonist) [2]: 2.06 nM; EC50 (agonist) [3]: 66.5 nM; EC50 (agonist) [4]: 23800 nM

**Q.** With YDHXRWNAFXY (Asp-Dpr side chain lactam bridge; Dpr; DNal(2′); C-terminal amide (amide resin)) [SEQ ID NO:33 (Tyr-c[Asp-His-DNal(2′)-Arg-Trp-Asn-Ala-Phe-Dpr]-Tyr)] as the binder, how does the “pA2 (antagonist; Partial agonist)” value [1] read?
**A.** 9.3

**Q.** What about the “EC50 (agonist)” value [2] of the same binder?
**A.** 22.3 nM

**Q.** What about the “EC50 (agonist)” value [3] of the same binder?
**A.** 5.56 nM

**Q.** What about the “pA2 (antagonist)” value [4] of the same binder?
**A.** 8.3

**Q.** For YDHXRWNAFXY (Asp-Dpr side chain lactam bridge; Dpr; DBip; C-terminal amide (amide resin)) [SEQ ID NO:35 (Tyr-c[Asp-His-DBip-Arg-Trp-Asn-Ala-Phe-Dpr]-Tyr)], which “EC50 (agonist)” value [1] is on record?
**A.** 0.57 nM

**Q.** And the “EC50 (agonist)” value [2]?
**A.** 5.27 nM

**Q.** What about the “EC50 (agonist)” value [3] of the same binder?
**A.** 3.87 nM

**Q.** And the “EC50 (agonist)” value [4]?
**A.** 33 nM

**Q.** With YDHXRWNAFXY (Asp-Dpr side chain lactam bridge; Dpr; (pI)DPhe; C-terminal amide (amide resin)) [SEQ ID NO:32 (Tyr-c[Asp-His-(pI)DPhe-Arg-Trp-Asn-Ala-Phe-Dpr]-Tyr)] as the binder, how does the “pA2 (antagonist; Partial agonist)” value [1] read?
**A.** 9.4

**Q.** And the “EC50 (agonist)” value [2]?
**A.** 2.33 nM

**Q.** And the “EC50 (agonist)” value [3]?
**A.** 0.3 nM

**Q.** And the “pA2 (antagonist)” value [4]?
**A.** 8.9

**Q.** What does the source list for YDPXRWNAFXY (Asp-Dpr side chain lactam bridge; Dpr; DPhe; C-terminal amide (amide resin)) [SEQ ID NO:28 (Tyr-c[Asp-Pro-DPhe-Arg-Trp-Asn-Ala-Phe-Dpr]-Tyr)]?
**A.** EC50 (agonist) [1]: 0.63 nM; EC50 (agonist) [2]: 7.16 nM; EC50 (agonist) [3]: 22.1 nM; pA2 (antagonist; Partial agonist) [4]: 7.2

**Q.** For YDHXRPNAFXY (Asp-Dpr side chain lactam bridge; Dpr; DPhe; C-terminal amide (amide resin)) [SEQ ID NO:38 (Tyr-c[Asp-His-DPhe-Arg-Pro-Asn-Ala-Phe-Dpr]-Tyr)], which “EC50 (agonist)” value [1] is on record?
**A.** 7200 nM

**Q.** And the “EC50 (agonist)” value [2]?
**A.** 700 nM

**Q.** What about the “EC50 (agonist)” value [3] of the same binder?
**A.** 1000 nM

**Q.** What about the “EC50 (agonist)” value [4] of the same binder?
**A.** 39200 nM

B4: SEQ ID NO:39 (Tyr-c[Asp-His-DPhe-Arg-Nal(2′)-Asn-Ala-Phe-Dpr]-Tyr) (peptide)
peptide: YDHXRXNAFXY
modifications: Asp-Dpr side chain lactam bridge; Dpr; DPhe; Nal(2′); C-terminal amide (amide resin)
**Q.** For B4, which “EC50 (agonist)” value [1] is on record?
**A.** 0.27 nM

**Q.** And the “EC50 (agonist)” value [2]?
**A.** 1.93 nM

**Q.** And the “EC50 (agonist)” value [3]?
**A.** 0.53 nM

**Q.** What about the “EC50 (agonist)” value [4] of the same binder?
**A.** 5.56 nM

**Q.** For YDHXRANAFXY (Asp-Dpr side chain lactam bridge; Dpr; DPhe; C-terminal amide (amide resin)) [SEQ ID NO:27 (Tyr-c[Asp-His-DPhe-Arg-Ala-Asn-Ala-Phe-Dpr]-Tyr)], which “EC50 (agonist)” value [1] is on record?
**A.** 710 nM

**Q.** And the “EC50 (agonist)” value [2]?
**A.** 50.1 nM

**Q.** And the “EC50 (agonist)” value [3]?
**A.** 350 nM

**Q.** And the “EC50 (agonist)” value [4]?
**A.** 13500 nM

B5: SEQ ID NO:25 (Tyr-c[Asp-His-Ala-Arg-Trp-Asn-Ala-Phe-Dpr]-Tyr) (peptide)
peptide: YDHARWNAF[Dap]Y-NH2
modifications: lactam 2-10; N-terminus assumed
SMILES: C[C@@H]1NC(=O)[C@H](CC(N)=O)NC(=O)[C@H](Cc2c[nH]c3ccccc23)NC(=O)[C@H](CCCNC(=N)N)NC(=O)[C@H](C)NC(=O)[C@H](Cc2c[nH]cn2)NC(=O)[C@@H](NC(=O)[C@@H](N)Cc2ccc(O)cc2)CC(=O)NC[C@@H](C(=O)N[C@@H](Cc2ccc(O)cc2)C(N)=O)NC(=O)[C@H](Cc2ccccc2)NC1=O
**Q.** What does the source list for B5?
**A.** EC50 (agonist) [1]: 14700 nM; EC50 (agonist) [2]: 690 nM; EC50 (agonist) [3]: 14000 nM; EC50 (agonist; Partial agonist) [4]: 30300 nM

**Q.** Which “EC50 (agonist)” value [1] does the source give for Ac-[Nle]DH[dR]FFK-NH2 (lactam 2-7) [SEQ ID NO:21 (Ac-Nle-c[Asp-His-DArg-Phe-Phe-Lys])] here?
**A.** > 100000 nM

**Q.** What about the “EC50 (agonist)” value [2] of the same binder?
**A.** > 100000 nM

**Q.** And the “EC50 (agonist)” value [3]?
**A.** > 100000 nM

**Q.** And the “EC50 (agonist)” value [4]?
**A.** > 100000 nM
